The results in this text go back to patent US20230241185A1, “COMPOSITION COMPRISING A DNA-DEGRADING ENZYME FOR USE IN A METHOD FOR THE TREATMENT OF IMMUNOSUPPRESSION AFTER ACUTE TISSUE INJURY” (Klinikum der Universität München, priority 2020, published 2023).

Experiment [1] deals with splenic CD3^+ T cells. Description: Splenic T cell counts by FACS after experimental stroke. It is filed as in vivo, mice. To be noted: i.p. 30 minutes after stroke surgery; Z-IETD-FMK 0.8 mg kg^−1, Z-LEHD-FMK; normalized to sham. The source says:
(§1) Mice were anaesthetized with isoflurane delivered in a mixture of 30% O2 and 70% N2O. An incision was made between the ear and the eye in order to expose the temporal bone. Mice were placed in supine position, and a laser Doppler probe was affixed to the skull above the middle cerebral artery (MCA) territory. The common carotid artery and left external carotid artery were exposed via midline incision and further isolated and ligated. A 2-mm silicon-coated filament (Doccol) was inserted into the internal carotid artery, advanced gently to the MCA until resistance was felt, and occlusion was confirmed by a corresponding decrease in blood flow (i.e., a decrease in the laser Doppler flow signal by 80%. After 60 minutes of occlusion, the animals were re-anesthetized, and the filament was removed. After recovery, the mice were kept in their home cage with ad libitum access to water and food. Sham-operated mice received the same surgical procedure, but the filament was […] in lieu of being advanced to the MCA. Body temperature was maintained at 37° C. throughout surgery in all mice via feedback-controlled heating pad. The overall mortality rate of animals subjected to MCA occlusion was approximately 20%. All animals in the sham group survived the procedure. Exclusion criteria: 1. Insufficient MCA occlusion (a reduction in blood flow to […] of the baseline value). 2. Death during the surgery. 3. Lack of brain ischemia as quantified post-mortem by histological analysis.
Anti-IL1β: Mice received two injections of antagonizing anti-IL-1β in sterile saline (clone: B122, InVivoMab, BioXcell, US), 1 hour prior to and 1 hour after surgery. Anti-IL-1β or the corresponding IgG control (Armenian hamster IgG, InVivoMab, BioXcell, US) was injected i.p. at a dose of 4 mg kg^−1 body weight in a final volume of 200 μl.
Anti-FasL: Mice received two injections of antagonizing anti-FasL in sterile saline (clone: MFL3, InVivoMab, BioXcell, US), 1 hour prior to and 1 hour after surgery. […]

Experiment [2] concerns caspase-1 activity in splenic CD11b^+ monocytes. In words: FAM FLICA flow cytometry of caspase-1 activity (inflammasome activation) in splenic monocytes after stroke. In kind it is in vivo, mice. To be noted: caspase-8 or caspase-9 inhibitor vs vehicle, 18 h after stroke, normalized to sham.
Description: as §1
Human recombinant DNase (hrDNase): 1000 U of human recombinant DNase (Roche, Switzerland) dissolved in incubation 1× buffer (40 mM Tris-HCl, 10 mM NaCl, 6 mM MgCl2, 1 mM CaCl2, pH 7.9, diluted in PBS, Roche) was injected i.v. in the tail vein 1 hour after surgery in a final volume of 100 μl. The control group was administered vehicle injections at the same volume, route, and timing as experimental animals.
Caspase-8 inhibitor (Z-IETD-FMK) & Caspase-9 inhibitor (Z-LEHD-FMK): The apoptosis inhibitors Z-IETD-FMK and Z-LEHD-FMK (R&D systems, US) in DMSO dissolved in PBS and injected i.p. 30 minutes after surgery. Z-LEHD-FMK was injected at a dose of […] body weight at a final volume of 200 μl. Z-IETD-FMK was injected at a dose of 0.8 mg kg^−1 body weight at a final volume of 100 μl. The control groups were administered vehicle injections at the same volume, route, and timing as experimental animals.
To detect the active forms of caspase-1 in blood, spleen, and bone marrow samples, cell suspensions were stained with the fluorescent inhibitor probe FAM-YVAD-FMK (FAM FLICA, BioRad, Germany) for 30 minutes at 37° C. according to the manufacturer's instructions. After washing, the cells were stained for CD45^+CD3^+ T cells and CD45^+Cd11b^+ monocytes. The flow cytometry data was acquired on a BD FACSVerse (for representative gating strategy, see FIG. 10B).

In experiment [3] the test system is T cells. In words: BMDMs stimulated with rIL-1β, then T cell co-culture: T cell death. It is filed as cell-based, mice. To be noted: T cells added to rIL-1β-stimulated BMDMs in fresh medium, FACS 180 minutes later. The method, then:
Round-bottom tissue culture-treated 96-well plates were coated with 100 μl of PBS containing a mixture of […] purified NA/LE hamster anti-mouse CD3e (clone: 145-2C11, BD Pharmingen) and […] anti-mouse CD28 (clone: 37.51, Invitrogen), and then incubated overnight at 37° C. with 5% CO2. Spleens (wild type, Casp1^−/−) isolated from mice were homogenized into single splenocyte suspensions by using a 40 μm cell strainer followed by erythrolysis as described above. T cells were purified from splenocytes using a negative selection kit (MagniSort, Thermo Fisher) according to the manufacturer's instructions. Purity was reliably ≥90% as assessed by flow cytometry.
Control-treated BMDMs received only FBS-containing culture media. […] Stimulation by secreted factors (left), and 2. Cell-cell contact (right).

For experiment [4], the system named is splenic T cells. Description: rIL-1β i.p. injection in WT mice: T cell death in the spleen by FACS. In kind it is in vivo. To be noted: rIL-1β 100 or 1000 ng single i.p. injection, 6 h later. The method, then:
(§2) Murine recombinant IL-1β: Recombinant IL-1β (401-ML, R&D systems, US) was diluted in sterile PBS and administered intraperitoneally at a dose of 100 or 1000 ng per mouse in a total volume of 100 μl. The control group was administered vehicle injections at the same volume, route and timing as experimental animals.
(§3) Mice were deeply anaesthetized with ketamine (120 mg/kg) and xylazine (16 mg/kg) and blood was drawn via cardiac puncture in 50 mM EDTA (Sigma-Aldrich). Plasma was isolated by centrifugation at 3,000 g for 10 minutes and stored at −80° C. until further use. The blood pellet was resuspended in DMEM and erythrocytes were lysed using isotonic ammonium chloride buffer. Immediately following cardiac puncture, mice were transcardially perfused with normal saline for dissection of bone marrow and spleen. […]
(§4) The anti-mouse antibodies listed below (see Table 1) were used for surface marker staining of CD45^+ leukocytes, CD45^+CD11b^+ monocytes (+FasL^+ expression), CD3^+ T cells, CD3^+CD4^+ Thelper cells, CD3^+CD8^+ Tcytotox cells and CD19^+ B cells (for representative gating strategy, see FIG. 10A). […] Flow cytometric data was acquired using a BD FACSverse flow cytometer (BD Biosciences) and analyzed using FlowJo software (Treestar).

The test system of experiment [5] is monocytic FasL. In words: rIL-1β i.p. injection in WT mice: monocytic FasL expression in the spleen by FACS. In kind it is in vivo. To be noted: rIL-1β 100 or 1000 ng single i.p. injection, 6 h later. The method, then:
as §2, §3, §4

The test system of experiment [6] is FasL on BMDMs. In words: BMDMs treated with IL-1a, IL-1b or IL-18: FasL+ expression. It is filed as cell-based, mice. To be noted: BMDMs treated with 100 ng of IL-1a, IL-1b or IL-18 for 4 h.
The test system of experiment [7] is FasL^+CD11b^+ monocytes (BMDMs). To be noted: BMDMs stimulated with rIL-1β in increasing doses, FACS 180 minutes after adding T cells.

Where two headings read alike, the source gives them in different places. Residues, ends and D or L forms follow the SMILES beside them. *: point of attachment. Cbz = O=C(OCc1ccccc1)*; CH2F = FC*

`CC[C@H](C)[C@H](NC(=O)OCc1ccccc1)C(=O)N[C@@H](CCC(=O)OC)C(=O)N[C@H](C(=O)N[C@@H](CC(=O)OC)C(=O)CF)[C@@H](C)O` [Z-IETD-FMK] (Cbz-IE(OMe)TD(OMe)-CH2F): the T cell death entry in experiment [1] is reported as “T cell death was only reduced in mice treated with the caspase-8”. Moreover, the “caspase-1 activity in splenic CD11b+ monocytes” value is given as “neither affected caspase-1 activation in monocytes” in experiment [2] and “Neither caspase-8 nor caspase-9 inhibitor showed differences in caspase-1 activity compared to the vehicle-treated mice” in experiment [2] (listed as C8i).
On to `COC(=O)CC[C@H](NC(=O)[C@H](CC(C)C)NC(=O)OCc1ccccc1)C(=O)N[C@@H](Cc1cnc[nH]1)C(=O)N[C@@H](CC(=O)OC)C(=O)CF` [Z-LEHD-FMK] (Cbz-LE(OMe)HD(OMe)-CH2F), for which the “caspase-1 activity in splenic CD11b+ monocytes” value in experiment [2] is “neither affected caspase-1 activation in monocytes”; in experiment [2] (listed as C9i), “Neither caspase-8 nor caspase-9 inhibitor showed differences in caspase-1 activity compared to the vehicle-treated mice”.

B1: rIL-1β: Murine recombinant IL-1β (401-ML, R&D systems) (protein, UniProt P10749 118-269, looked up)
Interleukin-1 beta: VPIRQLHYRLRDEQQKSLVLSDPYELKALHLNGQNINQQVIFSMSFVQGEPSNDKIPVALGLKGKNLYLSCVMKDGTPTLQLESVDPKQYPKKKMEKRFVFNKIEVKSKVEFESAEFPNWYISTSQAEHKPVFLGNNSGQDIIDFTMESVSS
In the case of B1, the T cell death entry in experiment [3] is “increased T cell death”; in experiment [3] (listed as recombinant IL-1β), “increased FasL expression and T cell death but to a lesser degree than induced by the serum of stroke mice”. Further, the “T cell death in the spleen” value in experiment [4] (listed as rIL-1b) is “dose-dependent increase in T cell death in the spleen”; in experiment [4] (listed as recombinant IL-1β) it was “dose-dependently induced T cell death and FasL upregulation on myeloid cells”. Further, the “monocytic FasL expression in the spleen” value is “dose-dependent increase in associated monocytic FasL expression in the spleen” in experiment [5]; “dose-dependently induced T cell death and FasL upregulation on myeloid cells” in experiment [5] (listed as recombinant IL-1β). The “FasL+ expression normalized to untreated control” value in experiment [6] was “FasL upregulation on myeloid cells was predominantly induced by IL-1β”. The “ratio of FasL+CD11b+ monocytes / FasL expression” value was “increased the ratio of FasL^+CD11b^+ monocytes” in experiment [7]; “increased FasL expression and T cell death but to a lesser degree than induced by the serum of stroke mice” in experiment [7] (listed as recombinant IL-1β).
